Assays:
[1] = target: HLA-A*02:02; assay: IEDB peptide-MHC binding, purified MHC/competitive/radioactivity; filed as Kd, often an IC50 or EC50 that approximates it; ≥ and ≤ were set here for values at or beyond the usual limits of such assays
[2] = target: HLA-A*02:03; assay: as above
[3] = target: HLA-A*02:06; assay: as above
[4] = target: HLA-A*02:01; assay: IEDB peptide-MHC binding, purified MHC/competitive/fluorescence; ≥ and ≤ were set here for values at or beyond the usual limits of such assays
[5] = target: HLA-A*01:01; assay: IEDB peptide-MHC binding, purified MHC/competitive/radioactivity; filed as Kd, often an IC50 or EC50 that approximates it; ≥ and ≤ were set here for values at or beyond the usual limits of such assays; details: source organism: Dengue virus 1 Brazil/97-11/1997
[6] = target: HLA-A*26:01; assay: as above
[7] = target: HLA-A*30:02; assay: as above; details: source organism: Dengue virus 1 Brazil/97-11/1997
[8] = target: HLA-A*24:02; assay: as above
[9] = target: HLA-B*58:01; assay: IEDB peptide-MHC binding, purified MHC/direct/fluorescence; filed as Kd, often an IC50 or EC50 that approximates it; ≥ and ≤ were set here for values at or beyond the usual limits of such assays; details: source organism: Mammarenavirus juninense
[10] = target: HLA-A*03:01; assay: as above; details: source organism: Corynebacterium jeikeium
[11] = target: HLA-A*02:01; assay: as above; details: source organism: Giardia intestinalis
[12] = source organism: Mammarenavirus juninense
[13] = source organism: Vaccinia virus WR
[14] = source organism: Dengue virus 1 Brazil/97-11/1997
[15] = source organism: Dengue virus 2 Jamaica/1409/1983
[16] = source organism: SARS coronavirus Tor2

Row | Sequence | Kd [1, 13] [nM] | Kd [2, 13] [nM] | Kd [3, 13] [nM] | further results
1 | ALNIALVAV |  |  |  | Kd [1, 12]: 15.3 nM; Kd [2, 12]: 4.46 nM; Kd [3, 12]: 370 nM
2 | ALVSDCASTI | 94.2 | 52.1 | 240 | 
3 | ATGFGTNET |  |  |  | IC50 ([4]; source organism: Zaire ebolavirus): ≥ 393000 nM
4 | ATLLAVSGVY |  |  |  | Kd [5]: 4920 nM; Kd [6, 14]: 2290 nM; Kd [7]: 2.47 nM
5 | AYSLTLQGL |  |  |  | Kd ([8]; source organism: Homo sapiens): 45 nM
6 | CTIVDSMII | 13900 | 1790 | 4580 | 
7 | DTIETLMLL |  |  |  | Kd [6, 14]: 141 nM
8 | DTITYKCPL |  |  |  | Kd [6, 15]: 3380 nM
9 | DTVTYECPL |  |  |  | Kd ([6]; source organism: Dengue virus 4 Philippines/H241/1956): 6130 nM
10 | DVEKRILNTI | ≥ 21000 | 12600 | 10800 | 
11 | EFFLIVLLI |  |  |  | Kd [8, 15]: 3050 nM
12 | ELIDGISLGL |  |  |  | Kd ([6]; source organism: Dengue virus 4 Dominica/814669/1981): 500 nM
13 | ELPVKTDIV | ≥ 23000 | 8060 | 11500 | 
14 | ETEPPFGESY |  |  |  | Kd [5]: 5.28 nM; Kd [6, 14]: 134 nM
15 | ETLFGSYIT | 2490 | 2440 | 15300 | 
16 | EVNDTHYTV | 133 | 115 | 4780 | 
17 | FICNLLLLFV |  |  |  | Kd [1, 16]: 2.47 nM; Kd [2, 16]: 14.6 nM; Kd [3, 16]: 3.96 nM
18 | FIMRNFLRSI | 27.7 | 0.118 | 0.447 | 
19 | FLAFVVFLL |  |  |  | Kd [1, 16]: 0.411 nM; Kd [2, 16]: 87.9 nM; Kd [3, 16]: 2.57 nM
20 | FLLVTLAIL |  |  |  | Kd [1, 16]: 0.645 nM; Kd [2, 16]: 0.97 nM; Kd [3, 16]: 0.476 nM
21 | FMNAVGHDW |  |  |  | Kd [9]: 71 nM
22 | FMSHVKSVT | 508 | 181 | 4320 | 
23 | FMWAHPGKK |  |  |  | Kd [10]: 39 nM
24 | FRSGVPPKV |  |  |  | IC50 ([4]; source organism: Sudan ebolavirus): ≥ 169000 nM
25 | GAFMYTKHSM | 544 | 458 | 3140 | 
26 | GALYLGHSA | 7500 | 1900 | 792 | 
27 | GIKCIKKGV |  |  |  | IC50 ([4]; source organism: Vaccinia virus): ≥ 102000 nM
28 | GLAGLQTDV |  |  |  | Kd [11]: 175 nM
